Data as given in US8435522 (Teva, dated 2013).

T1: CXCR3 (human cell surface protein CD183) (human, UniProt P49682 1-368)
T1 chain: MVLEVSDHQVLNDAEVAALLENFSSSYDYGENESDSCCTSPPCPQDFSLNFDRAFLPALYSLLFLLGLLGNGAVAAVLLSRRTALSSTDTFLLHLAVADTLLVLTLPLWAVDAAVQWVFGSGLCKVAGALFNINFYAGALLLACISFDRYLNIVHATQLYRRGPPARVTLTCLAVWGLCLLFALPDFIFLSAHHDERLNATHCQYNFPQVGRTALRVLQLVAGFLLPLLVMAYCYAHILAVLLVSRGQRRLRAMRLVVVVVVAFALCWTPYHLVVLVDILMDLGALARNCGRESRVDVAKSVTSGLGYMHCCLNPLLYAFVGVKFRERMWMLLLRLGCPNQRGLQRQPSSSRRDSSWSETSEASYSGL

T2: CXCR3 (human cell surface protein CD183) (human, UniProt P49682 1-368)
T2 sequence (looked up): T1 chain

T3: rat CXCR3 (on polarized rat Th1 cells) (rat, UniProt Q9JII9 1-367)
T3 construct: whole, on cells; the target meant is rat CXCR3
T3 sequence (looked up): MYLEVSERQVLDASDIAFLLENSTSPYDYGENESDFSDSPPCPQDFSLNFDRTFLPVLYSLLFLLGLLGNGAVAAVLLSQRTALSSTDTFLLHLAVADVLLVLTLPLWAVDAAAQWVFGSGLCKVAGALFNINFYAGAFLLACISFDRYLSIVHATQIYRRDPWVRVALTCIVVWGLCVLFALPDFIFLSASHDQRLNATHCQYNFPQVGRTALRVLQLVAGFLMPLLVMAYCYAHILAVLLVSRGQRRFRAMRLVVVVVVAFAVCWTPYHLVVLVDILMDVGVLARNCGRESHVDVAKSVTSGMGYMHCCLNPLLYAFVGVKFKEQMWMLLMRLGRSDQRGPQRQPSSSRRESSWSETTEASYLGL

B1: CXCL11 (I-TAC, interferon-inducible T cell a-chemoattractant) (ligand)
chain: FPMFKRGRCLCIGPGVKAVKVADIEKASIMYPSNNCDKIEVIITLKENKGQRCLNPKSKQARLIIKKVERKNF
modifications: 125I label, site not stated
B2: Humanized Ab2 H5K7 (antibody, V domains shown)
VH: EVQLLESGGGLVQPGGSLRLSCAASGFTFSNYAMSWVRQAPGKGLEWVSTISSGGGYTYYPDSLKGRFTISRDNSKNTLYLQMNSLRAEDTAVYYCAKHGAPMTTVITYAPYYFYYWGQGTTVTVSS
VL: ENVLTQSPAFLSVTPGEKVTITCRASSSVKYMYWYQQKPDQAPKLWIYYTSNLAPGVPSRFSGSGSGNDYTFTISSLEAEDAATYYCQQFTTSPYTFGGGTKLEIK
notes: IgG1 backbone, human kappa
B3: Mouse anti-CXCR3 V44D7 (antibody, V domains shown)
VH: EVMLVESGGGLVKPGGSLKLSCAASGFTFSNYAMSWVRQTPEKRLEWVATISSGGGYTYYPDSLKGRFTISRDNAKNTLFLQMSSLRSEDTAVYYCVRHGAPMTTVITYAPYYFDYWGQGTTLTVSS
VL: ENVLTQSPAIMSASLGEKVTMNCRASSSVKYMYWYQQKSDASPKLWIYYTSNLAPGVPARFSGSGSGNSYSLTISSMEGEDAATYYCQQFTTSPYTFGGGTKLEIK
notes: also called V44D7A; Ab#5

Experiments:
[1] = molecular target: T1, CXCR3 (human cell surface protein CD183); assay: 125I-CXCL11 binding inhibition on Th1 cells
[2] = molecular target: T2, CXCR3 (human cell surface protein CD183); assay: cell-based or functional assay
[3] = molecular target: T2, CXCR3 (human cell surface protein CD183); assay: competition with Eu-IP-10 binding to Th1 cells
[4] = molecular target: T2, CXCR3 (human cell surface protein CD183); assay: competition with Eu-V44 (Eu-labeled mouse CXCR3mAb) binding to Th1 cells
Procedure: Th1 cells were incubated in a 96 well plate with Eu-CXCR3mAb in the absence or presence of various concentrations humanized CXCRmAbs. After incubation (1 hr at RT), cell bound Eu-CXCR3mAb was separated from free Europium by washing three times and the plate was read using Vctor2 fluorometer. IC$50$ values were calculated using Prizm software. Ab1 has a heavy chain sequence of humanized anti-CXCR3 V44D7 VH Lead #5 amino acid and a light chain sequence of humanized anti-CXCR3 V44D7 VK Lead #1 (see Informal Sequence Listing) in an IgG1 backbone. Ab2 has a heavy chain sequence of humanized anti-CXCR3 V44D7 VH Lead #5 and a light chain sequence of humanized anti-CXCR3 V44D7 VK Lead #7 (see Informal Sequence Listing) in an IgG1 backbone. Humanized Ab (IgG4) has a heavy chain sequence of humanized anti-CXCR3 V44D7 VH Lead #5 and a light chain sequence of the original mouse anti-CXCR3 V44D7 VK in an IgG4 backbone. Figure 22: FIG. 22 illustrates inhibition Eu-CXC10 by humanized CXCR3Abs. […] After incubation (1 hr at RT), cell bound Eu-CXCL10 was separated from free Europium by washing three times and the plate was read using Vctor2 fluorometer. IC$50$ values were calculated using Prizm software. […] After 2 hr incubation at 37° C., cells migrated to the bottom wells were determined by cell titer glo method (Promega).

[5] = molecular target: T2, CXCR3 (human cell surface protein CD183); assay: cell-based or functional assay; remark: listed apart in the source
[6] = molecular target: T3, rat CXCR3 (on polarized rat Th1 cells); assay: FACS on polarized rat Th1 cells
Procedure: FACS analysis was performed to determine reactivity of mouse CXCR3mAb to polarized rat Th1 cells. Only rabbit anti-mouse CXCR3 Ab bound to rat Th1 cells. […] As a control, mouse anti-CXCR3mAb binding to human Th1 cells is also shown (bottom panel).
The parental mouse CXCR3mAb was tested for binding to polarized rat Th1 cells by FACS. Only rabbit anti-mouse CXCR3 Ab (positive control) bound to rat Th1 cells.

[7] = molecular target: T2, CXCR3 (human cell surface protein CD183); assay: displacement of 125I-I-Tac binding to Th1 cells
[8] = molecular target: T2, CXCR3 (human cell surface protein CD183); assay: displacement of 125I-IP-10 binding to Th1 cells
Procedure: Figure 14: FIG. 14 illustrates expression of CXCR3 on Th1 cells. Th1 and Th2 cells were generated from cord blood and CXCR3 and CCR4 expression were determined by FACS. CXCR3 was present only Th1 cells. […] IC$50$ values were calculated using Prizm software. Lead candidates were highlighted in green. […] IC$50$ values were calculated using Prizm software. Lead candidates were highlighted in green.

| Binder | IC50 [1] [pM] | Chemotaxis IC50 [2] [pM] | IC50 [3] [pM] | IC50 [4] [pM] | Inhibition of IP-10-induced Th1 chemotaxis, IC50 [5] [µg/mL] | binding result [6] | IC50 [7] [pM] | IC50 [8] [pM] |
| --- | --- | --- | --- | --- | --- | --- | --- | --- |
| B1 | 10 | – | – | – | – | – | – | – |
| B2 | – | 280 | 350 | 1820 | – | – | – | – |
| B3 | – | 90 | 140 | 290 | 0.035 | no binding | 100 | 130 |
